Biological target: T1, CD20 (human, UniProt P11836 1-297)
T1 construct: whole, on cells; target on WIL2-S (WIL-2S), Ramos and BJAB cells; also called human CD20
T1 sequence (looked up): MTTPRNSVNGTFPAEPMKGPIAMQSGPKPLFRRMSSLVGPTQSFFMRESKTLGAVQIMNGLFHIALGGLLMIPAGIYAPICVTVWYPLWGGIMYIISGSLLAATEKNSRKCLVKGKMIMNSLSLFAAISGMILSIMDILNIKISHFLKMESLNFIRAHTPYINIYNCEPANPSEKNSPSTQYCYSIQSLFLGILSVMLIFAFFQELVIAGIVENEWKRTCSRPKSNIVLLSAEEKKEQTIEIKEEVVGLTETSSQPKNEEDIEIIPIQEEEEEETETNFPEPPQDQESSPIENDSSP
Test: flow cytometry: 2e12 HL SMIP on WIL-2S cells (CD20), then CD28mIgG 5 ug/ml and FITC anti-mouse 1:100
Protocol: In this case, the fusion proteins were first bound to WIL-2S CD20 expressing cells, and binding was then detected with CD28mIgG (5 µg/ml) and FITC anti-mouse reagent at 1:100.

B1: 2E12IgG-VHVL SMIP (Fc fusion)
chain: VQVQLKESGPGLVAPSQSLSITCTVSGFSLTGYGVNWVRQPPGKGLEWLGMIWGDGSTDYNSALKSRLSITKDNSKSQVFLKMNSLQTDDTARYYCARDGYSNFHYYVMDYWGQGTSVTVSSGGGGSGGGGSGGGGSGGGGSDIVLTQSPASLAVSLGQRATISCRASESVEYYVTSLMQWYQQKPGQPPKLLISAASNVESGVPARFSGSGSGTDFSLNIHPVEEDDIAMYFCQQSRKVPWTFGGGTKLEIKR
notes: also called 2e12 VHVL SMIP; 2e12 HL SMIP; not shown: IgG hinge-CH2-CH3 of the SMIP, not described
- binding result: no binding (tested: about 5 ug/mL (read off the axis))

From US8409577 (EMERGENT PRODUCT DEVELOPMENT SEATTLE, dated 2013)
